From US20110065649A1 (CENTRE NATIONAL DE LA RECHERCHE SCIENTIFIQUE CNRS, published 2011)
Square brackets hold non-standard residues; d marks the D form. Ends that are not written are not given here. KΨPR = pseudopeptide unit Lys-Ψ(CH2-N)-Pro-Arg; Aib = CC(C)(N)C(=O)O

Target: surface nucleolin on human cells (human, UniProt P19338 2-710)
Test: cell-based or functional assay

Sequence of surface nucleolin on human cells (P19338 2-710): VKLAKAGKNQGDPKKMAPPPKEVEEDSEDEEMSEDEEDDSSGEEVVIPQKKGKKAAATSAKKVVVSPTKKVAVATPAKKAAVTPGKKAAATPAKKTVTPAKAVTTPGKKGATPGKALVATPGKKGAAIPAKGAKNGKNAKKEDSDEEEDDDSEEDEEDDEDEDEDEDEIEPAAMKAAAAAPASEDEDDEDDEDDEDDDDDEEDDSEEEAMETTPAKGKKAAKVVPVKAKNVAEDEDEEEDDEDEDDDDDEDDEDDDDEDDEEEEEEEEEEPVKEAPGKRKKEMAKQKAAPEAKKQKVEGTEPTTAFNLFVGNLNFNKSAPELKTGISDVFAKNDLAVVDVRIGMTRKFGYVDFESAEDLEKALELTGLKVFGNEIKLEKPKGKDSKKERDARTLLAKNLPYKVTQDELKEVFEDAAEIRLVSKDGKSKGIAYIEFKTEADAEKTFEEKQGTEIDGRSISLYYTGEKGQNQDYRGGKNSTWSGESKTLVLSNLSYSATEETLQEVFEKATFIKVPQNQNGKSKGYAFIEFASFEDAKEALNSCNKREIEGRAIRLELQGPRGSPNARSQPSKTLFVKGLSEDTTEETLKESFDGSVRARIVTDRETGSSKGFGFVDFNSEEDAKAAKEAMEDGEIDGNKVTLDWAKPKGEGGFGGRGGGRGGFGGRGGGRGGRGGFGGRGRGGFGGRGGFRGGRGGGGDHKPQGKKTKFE

ID50 (Inhibitory Dose at 50%) of surface nucleolin activity in HeLa P4 cells: < 100 nM
B1: hexavalent compound Nucant 6 (peptide)
chain: Ac-K(KΨPR)[Aib]GK(KΨPR)[Aib]GK(KΨPR)[Aib]GK(KΨPR)[Aib]GK(KΨPR)[Aib]GK(KΨPR)[Aib]G-NH2
peptide: Lys-Pro-Arg
modifications: also: chain 2 is the KΨPR unit, one copy bound via its C-terminus as amide on the ε-amine of each of the 6 Lys of chain 1, reduced bond Ψ(CH2-N) between K and P of chain 2
